Measurements as given in US20170268035, “GENOMIC PROBES” (Howard Hughes Medical Institute, published 2017).

T1: dCas9-Halo (D10A/H840A SpCas9, nuclease-deficient) (Streptococcus pyogenes, UniProt Q99ZW2 SEQ:8-1375)
T1 chain: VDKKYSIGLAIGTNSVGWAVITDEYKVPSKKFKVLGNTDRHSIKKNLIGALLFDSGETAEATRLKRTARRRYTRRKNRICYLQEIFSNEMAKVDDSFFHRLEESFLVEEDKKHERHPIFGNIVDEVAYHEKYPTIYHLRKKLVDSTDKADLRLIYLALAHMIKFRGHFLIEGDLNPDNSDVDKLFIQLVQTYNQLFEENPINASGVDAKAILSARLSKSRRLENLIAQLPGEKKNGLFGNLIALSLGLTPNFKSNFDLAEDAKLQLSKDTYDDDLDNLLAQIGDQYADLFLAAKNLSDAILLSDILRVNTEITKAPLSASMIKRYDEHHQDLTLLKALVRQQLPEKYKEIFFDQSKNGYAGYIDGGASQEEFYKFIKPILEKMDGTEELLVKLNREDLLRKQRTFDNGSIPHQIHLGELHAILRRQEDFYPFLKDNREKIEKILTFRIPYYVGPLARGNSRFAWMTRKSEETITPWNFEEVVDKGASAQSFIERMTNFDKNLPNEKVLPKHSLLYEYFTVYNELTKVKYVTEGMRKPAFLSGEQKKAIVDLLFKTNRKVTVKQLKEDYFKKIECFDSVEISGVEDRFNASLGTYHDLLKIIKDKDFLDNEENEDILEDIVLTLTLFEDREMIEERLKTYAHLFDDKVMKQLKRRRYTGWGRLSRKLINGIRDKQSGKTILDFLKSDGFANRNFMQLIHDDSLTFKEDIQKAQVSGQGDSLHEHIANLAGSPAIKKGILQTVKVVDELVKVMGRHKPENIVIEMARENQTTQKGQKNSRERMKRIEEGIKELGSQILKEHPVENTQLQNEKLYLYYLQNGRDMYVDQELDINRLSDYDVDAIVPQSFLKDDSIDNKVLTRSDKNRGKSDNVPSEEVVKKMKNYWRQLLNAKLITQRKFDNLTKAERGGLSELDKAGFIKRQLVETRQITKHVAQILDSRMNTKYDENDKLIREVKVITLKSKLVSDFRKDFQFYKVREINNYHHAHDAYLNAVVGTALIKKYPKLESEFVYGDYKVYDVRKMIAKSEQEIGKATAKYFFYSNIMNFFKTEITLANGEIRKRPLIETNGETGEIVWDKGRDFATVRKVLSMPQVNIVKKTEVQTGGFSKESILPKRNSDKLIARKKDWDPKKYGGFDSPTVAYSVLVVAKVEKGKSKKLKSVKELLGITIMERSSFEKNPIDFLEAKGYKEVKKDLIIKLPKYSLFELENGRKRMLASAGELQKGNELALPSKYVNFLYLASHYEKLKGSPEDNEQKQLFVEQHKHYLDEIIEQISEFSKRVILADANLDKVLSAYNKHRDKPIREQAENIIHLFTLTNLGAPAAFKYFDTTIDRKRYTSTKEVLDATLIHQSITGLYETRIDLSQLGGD

B1: DY547-sgMajSat (ssRNA)
RNA: CCAUAUUCCACGUCCUACAGGUUUAAGAGCUAUGCUGGAAACAGCAUAGCAAGUUUAAAUAAGGCUAGUCCGUUAUCAACUUGAAAAAGUGGCACCGAGUCGGUGCUUUUUUU
B2: DY547-sgMajSat ; major satellite target DNA (ssRNA ; dsDNA)
RNA: B1 RNA
DNA 1: TTTCTTGCCATATTCCACGTCCTACAGTGG
DNA 2: CCACTGTAGGACGTGGAATATGGCAAGAAA

What was measured:
[1] = molecular target: T1, dCas9-Halo (D10A/H840A SpCas9, …); assay: EMSA; binary complex; 100-fold unlabelled sgRNA did not displace; room temperature; conditions: tags: N-terminal His6, C-terminal HaloTag; JF549 or JF646 Halo ligand labelled; label: 5'-DY547
Experimental: The stability of the complex is evident from the lack of competition. The control lane (ctrl) indicates the reaction product from a mixture of Cy5 DNA and 30-fold of unlabeled target DNA with dCas9/sgRNA binary complex. As expected, only a small fraction of Cy5-DNA was incorporated into the dCas9 tertiary complex. (B) Competition EMSAs assessing the stability of the binary complex. (B, Left) The indicated fluorescent binary complex was assembled at room temperature for 10 min and incubated further with the indicated fold-amounts of unlabeled sgMajSat at room temperature for 10 min. Unlabeled target DNA was added to the solution subsequently to form a tertiary complex followed by gel electrophoresis. (B, Right) The DY547 intensity of the bands of the tertiary complex plotted as a histogram. The stability of the binary complex of dCas9 and DY547-sgRNA is evident from the lack of competition. The control lane (ctrl) indicates the reaction product from the binary complex formed by a mixture of DY547-sgMajSat and 100-fold of unlabeled sgMajSat with dCas9 protein. As expected, only a small fraction of DY547-sgMajSat was incorporated into the dCas9 tertiary complex. (C) Schematic of two-color CASFISH methods. […]
To explore the possibility of applying multiple dCas9/sgRNA species in one step for multicolor imaging, we assessed the stability of the binary complex by sgRNA competition assay.

[2] = molecular target: T1, dCas9-Halo (D10A/H840A SpCas9, …); assay: EMSA; PAM TGG; tertiary complex stable to 100-fold competitor DNA and 1.5 h with 30-fold; 37 C; conditions: tags: N-terminal His6, C-terminal HaloTag; JF549 or JF646 Halo ligand labelled; label: 5'-DY547; Cy5 (EMSA)
Experimental: The stability of the complex is evident from the lack of competition. Error bars represent SD of three independent experiments.
dCas9 protein and sgRNA were incubated together at room temperature for 10 min to examine the binary complex and subsequently were incubated with target DNA at 37° C. for 15 min to examine the tertiary complex. For the competition assay, an additional binary or tertiary complex reaction was performed after the addition of the competitor molecules. Resulting reaction mixtures were subjected to electrophoresis of 1% agarose gel in 1× Tris/borate/EDTA buffer containing 5 mM MgCl2 and were imaged with GE Typhoon Trio+Imagers.
Simultaneous imaging of multiple chromatin domains or genes is critical for studying chromatin interactions. To explore the possibility of using CASFISH to detect multiple DNA targets simultaneously, we first investigated the binding of CASFISH probes to target DNA by electrophoretic mobility shift assays (EMSA). […] To examine the stability of dCas9/sgMajSat binding to its target DNA, we carried out competition assays by adding excessive amounts of unlabeled target DNA to a preformed tertiary complex of JF549-dCas9/sgMajSat/Cy5-DNA. […]

| Binder | binding result [1] | binding result [2] |
| --- | --- | --- |
| B1 | binds |  |
| B2 |  | binds |
